Target: T1, colicin E3 (Escherichia coli) (UniProt P00646)
T1 sequence: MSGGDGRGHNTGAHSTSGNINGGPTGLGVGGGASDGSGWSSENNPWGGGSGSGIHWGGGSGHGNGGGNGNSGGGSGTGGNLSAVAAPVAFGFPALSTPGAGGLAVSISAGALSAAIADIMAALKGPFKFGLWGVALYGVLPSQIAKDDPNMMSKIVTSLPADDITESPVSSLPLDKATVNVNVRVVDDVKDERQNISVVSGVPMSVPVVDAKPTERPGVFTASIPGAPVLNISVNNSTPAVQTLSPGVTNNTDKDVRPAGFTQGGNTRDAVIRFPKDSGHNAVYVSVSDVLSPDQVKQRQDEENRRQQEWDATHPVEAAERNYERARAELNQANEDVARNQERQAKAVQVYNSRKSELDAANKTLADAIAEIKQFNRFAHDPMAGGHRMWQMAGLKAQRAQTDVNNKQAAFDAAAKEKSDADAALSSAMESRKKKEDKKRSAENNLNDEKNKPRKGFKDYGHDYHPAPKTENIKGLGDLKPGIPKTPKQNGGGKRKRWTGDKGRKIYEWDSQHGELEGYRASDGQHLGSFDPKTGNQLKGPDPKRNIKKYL

B1: E3 immunity protein, co-expressed with colicin E3 in CFPS (natural protein)
chain: MGLKLDLTWFDKSTEDFKGEEYSKDFGDDGSVMESLGVPFKDNVNNGCFDVIAEWVPLLQPYFNHQIDISDNEYFVSFDYRDGDW
effective multiplicity m = -ln(S/S0) of cell killing of K361 indicator cells by 250 ng/mL colicin E3 co-expressed with the immunity protein: 13.5
